Test results: US20220401524A1

What was measured:
[1] = target: complement C1q (human) (UniProt P02745); test: flow cytometry, vWF on cholesterol crystals with C1q against crystals without C1q
[2] = target: complement C1q (human) (UniProt P02745); test: cell-based or functional assay
[3] = target: complement C1q (human) (UniProt P02745); test: flow cytometry, vWF (10 µg/ml) bound to C1q immobilized on cholesterol crystals, mean of n=5

UniProt P02745, sequence (P02745 23-245, chain 1 of 3): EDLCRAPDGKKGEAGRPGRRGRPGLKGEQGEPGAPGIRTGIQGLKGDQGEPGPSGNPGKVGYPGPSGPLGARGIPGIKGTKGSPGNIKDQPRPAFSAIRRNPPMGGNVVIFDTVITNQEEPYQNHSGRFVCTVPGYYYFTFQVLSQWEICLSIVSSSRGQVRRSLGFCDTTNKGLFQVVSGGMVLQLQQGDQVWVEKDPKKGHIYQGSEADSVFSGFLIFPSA
UniProt P02745, sequence (chain, as listed by the source, chain 2 of 3): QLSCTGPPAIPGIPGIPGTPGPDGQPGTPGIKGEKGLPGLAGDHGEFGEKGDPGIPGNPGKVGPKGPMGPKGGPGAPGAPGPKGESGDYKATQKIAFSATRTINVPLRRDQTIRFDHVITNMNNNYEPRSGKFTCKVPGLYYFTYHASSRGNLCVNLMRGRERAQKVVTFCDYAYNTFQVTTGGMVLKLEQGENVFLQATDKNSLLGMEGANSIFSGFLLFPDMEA
UniProt P02745, sequence (chain, as listed by the source, chain 3 of 3): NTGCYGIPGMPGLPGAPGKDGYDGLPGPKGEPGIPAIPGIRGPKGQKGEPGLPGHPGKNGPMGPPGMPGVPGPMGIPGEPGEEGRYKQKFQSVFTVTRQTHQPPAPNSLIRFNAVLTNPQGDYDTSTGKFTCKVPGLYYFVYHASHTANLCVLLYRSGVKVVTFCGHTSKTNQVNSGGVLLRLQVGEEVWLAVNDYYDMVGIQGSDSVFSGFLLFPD

Substance: recombinant von Willebrand factor (from UniProt P04275 764-2813) (ligand)
- fold gMFI against CC without C1q [1]: 67 fold
- caspase-1 activity of HMDMs (% CD11c+ cells in FLICA+ gate) [2]: 9.37%
- early phagocytosis of pHrodo-dyed CC complexes by HMDMs (30 min, % CD11c+ cells in pHrodo Red Ester+ gate) [2]: 54.5%
- late phagocytosis of CC complexes by HMDMs (18 hr, % CD11c+ cells in SSC high gate) [2]: 13.7%
- gMFI [3]: 134000 gMFI
